Key:
[1] = carboxylate reductase activity, adipate semialdehyde to hexanedial; format: biochemical; settings: purified enzyme with sfp phosphopantetheine transferase, 2 mM adipate semialdehyde, pH 7.5, room temperature, 20 min
Procedure: The N-terminal His-tagged carboxylate reductase of SEQ ID NO 6 (see Example 2 and FIG. 6) was assayed using adipate semialdehyde as substrate. The enzyme activity assay was performed in triplicate in a buffer composed of a final concentration of 50 mM HEPES buffer (pH=7.5), 2 mM adipate semialdehyde, 10 mM MgCl2, 1 mM ATP and 1 mM NADPH. The enzyme activity assay reaction was initiated by adding purified carboxylate reductase and phosphopantetheine transferase or the empty vector control to the assay buffer containing the adipate semialdehyde and then incubated at room temperature for 20 min. The consumption of NADPH was monitored by absorbance at 340 nm.

[2] = β-ketothiolase activity, 4-hydroxybutyryl-CoA and acetyl-CoA to 3-oxo-6-hydroxyhexanoyl-CoA; format: biochemical; settings: 5 μM enzyme and ChnC lactonase, 10 mM γ-butyrolactone, 5 mM acetyl-CoA, pH 6.8, 30° C., 3 hour
Procedure: A nucleotide sequence encoding a N-terminal His-tag was added to the gene from Clostridium aminobutyricum encoding the β-ketothiolase activity of SEQ ID NO: 14 (see FIG. 6) such that a N-terminal HIS tagged enzyme could be produced. The resulting modified gene was cloned into a pET15b expression vector under control of the T7 promoter and the expression vector was transformed into a BL21[DE3] E. coli host. The resulting recombinant E. coli strain was cultivated at 37° C. in a 1 L shake flask culture containing 350 mL LB media and ampicillin antibiotic selection pressure, with shaking at 230 rpm. Each culture was induced overnight at 25° C. using 1 mM IPTG.
The pellet from each induced shake flask culture was harvested via centrifugation. Each pellet was resuspended and lysed via sonication. The cell debris was separated from the supernatant via centrifugation. The enzyme was purified from the supernatant using Ni-affinity chromatography, buffer exchanged and concentrated into 50 mM potassium phosphate buffer (pH=6.8) via ultrafiltration.
Enzyme activity assays converting 4-hydroxybutyryl-CoA and acetyl-CoA to 3-oxo-6-hydroxyhexanoyl-CoA were performed in triplicate in a buffer composed of a final concentration of 50 mM potassium phosphate buffer (pH=6.8), 75 μM ZnCl2, 10 mM γ-butyrolactone and 5 mM acetyl-CoA. […] The formation of 3-oxo-6-hydroxyhexanoyl-CoA was determined via LC-MS.

Molecule	acceptance of adipate semialdehyde as substrate (NADPH consumption, absorbance at 340 nm, vs empty vector control) [1]	acceptance of 4-hydroxybutyryl-CoA and acetyl-CoA as substrates, formation of 3-oxo-6-hydroxyhexanoyl-CoA (LC-MS) [2]
SEQ ID NO 6: Segniliparus rotundus carboxylate reductase, Genbank Accession No. ADG98140.1, N-terminal His-tagged (protein, listed as Segniliparus rotundus, N-terminal His tag) MTQSHTQGPQASAAHSRLARRAAELLATDPQAAATLPDPEVVRQATRPGLRLAERVDAILSGYADRPALGQRSFQTVKDPITGRSSVELLPTFDTITYRELRERATAIASDLAHHPQAPAKPGDFLASIGFISVDYVAIDIAGVFAGLTAVPLQTGATLATLTAITAETAPTLFAASIEHLPTAVDAVLATPSVRRLLVFDYRAGSDEDREAVEAAKRKIADAGSSVLVDVLDEVIARGKSAPKAPLPPATDAGDDSLSLLIYTSGSTGTPKGAMYPERNVAHFWGGVWAAAFDEDAAPPVPAINITFLPLSHVASRLSLMPTLARGGLMHFVAKSDLSTLFEDLKLARPTNLFLVPRVVEMLYQHYQSELDRRGVQDGTREAEAVKDDLRTGLLGGRILTAGFGSAPLSAELAGFIESLLQIHLVDGYGSTEAGPVWRDGYLVKPPVTDYKLIDVPELGYFSTDSPHPRGELAIKTQTILPGYYKRPETTAEVFDEDGFYLTGDVVAQIGPEQFAYVDRRKNVLKLSQGEFVTLAKLEAAYSSSPLVRQLFVYGSSERSYLLAVIVPTPDALKKFGVGEAAKAALGESLQKIARDEGLQSYEVPRDFIIETDPFTVENGLLSDARKSLRPKLKEHYGERLEAMYKELADGQANELRDIRRGVQQRPTLETVRRAAAAMLGASAAEIKPDAHFTDLGGDSLSALTFSNFLHDLFEVDVPVGVIVSAANTLGSVAEHIDAQLAGGRARPTFATVHGKGSTTIKASDLTLDKFIDEQTLEAAKHLPKPADPPRTVLLTGANGWLGRFLALEWLERLAPAGGKLITIVRGKDAAQAKARLDAAYESGDPKLAGHYQDLAATTLEVLAGDFSEPRLGLDEATWNRLADEVDFISHPGALVNHVLPYNQLFGPNVAGVAEIIKLAITTRIKPVTYLSTVAVAAGVEPSALDEDGDIRTVSAERSVDEGYANGYGNSKWGGEVLLREAHDRTGLPVRVFRSDMILAHQKYTGQVNATDQFTRLVQSLLATGLAPKSFYELDAQGNRQRAHYDGIPVDFTAESITTLGGDGLEGYRSYNVFNPHRDGVGLDEFVDWLIEAGHPITRIDDYDQWLSRFETSLRGLPESKRQASVLPLLHAFARPGPAVDGSPFRNTVFRTDVQKAKIGAEHDIPHLGKALVLKYADDIKQLGLL	accepted adipate semialdehyde as substrate	–
SEQ ID NO 14: Clostridium aminobutyricum CoA-transferase, GenBank Accession No. CAB60036.2, with β-ketothiolase activity, N-terminal His-tagged (protein, listed as Clostridium aminobutyricum, N-terminal His tag) MDWKKIYEDRTCTADEAVKSIKSGDRVLFAHCVAEPPVLVEAMVANAAAYKNVTVSHMVTLGKGEYSKPEYKENFTFEGWFTSPSTRGSIAEGHGQFVPVFFHEVPSLIRKDIFHVDVFMVMVSPPDHNGFCCVGVSSDYTMQAIKSAKIVLAEVNDQVPVVYGDTFVHVSEIDKFVETSHPLPEIGLPKIGEVEAAIGKHCASLIEDGSTLQLGIGAIPDAVLSQLKDKKHLGIHSEMISDGVVDLYEAGVIDCSQKSIDKGKMAITFLMGTKRLYDFAANNPKVELKPVDYINHPSVVAQCSKMVCINACLQVDFMGQIVSDSIGTKQFSGVGGQVDFVRGASMSIDGKGKAIIAMPSVAKKKDGSMISKIVPFIDHGAAVTTSRNDADYVVTEYGIAEMKGKSLQDRARALINIAHPDFKDELKAEFEKRFNAAF	–	accepted 4-hydroxybutyryl-CoA and acetyl-CoA as substrates

Source: patent US20160160255A1, “Methods and Materials for Producing 6-Carbon Monomers” (INVISTA North America S.á.r.l., priority 2014, published 2016)
